Results: article PMC6776994

Key:
[1] = molecular target: CCR5 chemokine receptor (human) (UniProt P51681); test: plasmonic metal-enhanced fluorescence imaging of cells
[2] = molecular target: CCR5 chemokine receptor (human) (UniProt P51681); test: flow cytometry on cells

UniProt P51681, sequence (P51681 whole entry): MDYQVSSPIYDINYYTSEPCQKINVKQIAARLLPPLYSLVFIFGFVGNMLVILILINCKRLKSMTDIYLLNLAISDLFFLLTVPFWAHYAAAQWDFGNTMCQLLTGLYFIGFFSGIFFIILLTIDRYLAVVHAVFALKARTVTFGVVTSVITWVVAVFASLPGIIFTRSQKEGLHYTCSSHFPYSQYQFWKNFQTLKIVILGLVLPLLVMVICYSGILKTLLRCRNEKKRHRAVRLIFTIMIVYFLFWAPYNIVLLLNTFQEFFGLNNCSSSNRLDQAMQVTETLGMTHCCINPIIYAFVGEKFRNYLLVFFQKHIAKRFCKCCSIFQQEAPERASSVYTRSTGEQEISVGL

## full length single chain (FLSC) IgG1 (Fc fusion)
[1]
  fold increase of CCR5 binding on MVC-treated against untreated cells: 1.65 fold
[2]
  reduction in CCR5 intensity (staining by mAb 45531) after FLSC IgG1: 10%
